The values that follow come from paper PMC11189300.

For assay [1], the target named is Mis12C^M3 (human), Q9H081.
Assay [2] concerns the target Mis12C^M4 (human), Q9H081.

Chain of Mis12C^M3 (human), Q9H081 (Q9H081 whole entry, chain 1 of 4): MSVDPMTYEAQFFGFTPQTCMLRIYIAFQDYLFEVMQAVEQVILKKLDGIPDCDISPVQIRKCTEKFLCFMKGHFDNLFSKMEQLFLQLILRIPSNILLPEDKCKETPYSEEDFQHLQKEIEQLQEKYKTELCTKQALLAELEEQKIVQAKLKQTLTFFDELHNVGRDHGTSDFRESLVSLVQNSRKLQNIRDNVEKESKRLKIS
Chain of Mis12C^M3 (human), Q9H081 (Q6P1K2 whole entry, chain 2 of 4, further chain): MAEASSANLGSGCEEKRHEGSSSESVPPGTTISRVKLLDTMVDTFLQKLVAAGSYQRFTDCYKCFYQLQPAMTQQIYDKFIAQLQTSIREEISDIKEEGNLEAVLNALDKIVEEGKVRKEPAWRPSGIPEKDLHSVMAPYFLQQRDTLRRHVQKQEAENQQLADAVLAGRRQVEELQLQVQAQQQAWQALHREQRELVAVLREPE
Chain of Mis12C^M3 (human), Q9H081 (Q96IY1 whole entry, chain 3 of 4, further chain): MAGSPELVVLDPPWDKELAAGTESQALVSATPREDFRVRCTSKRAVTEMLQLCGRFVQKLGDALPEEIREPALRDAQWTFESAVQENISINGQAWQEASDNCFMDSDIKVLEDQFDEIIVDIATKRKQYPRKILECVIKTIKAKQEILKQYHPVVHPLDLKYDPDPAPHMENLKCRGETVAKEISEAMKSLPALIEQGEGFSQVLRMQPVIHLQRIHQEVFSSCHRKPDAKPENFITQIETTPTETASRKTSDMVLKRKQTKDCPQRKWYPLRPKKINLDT
Chain of Mis12C^M3 (human), Q9H081 (Q9H410 whole entry, chain 4 of 4, further chain): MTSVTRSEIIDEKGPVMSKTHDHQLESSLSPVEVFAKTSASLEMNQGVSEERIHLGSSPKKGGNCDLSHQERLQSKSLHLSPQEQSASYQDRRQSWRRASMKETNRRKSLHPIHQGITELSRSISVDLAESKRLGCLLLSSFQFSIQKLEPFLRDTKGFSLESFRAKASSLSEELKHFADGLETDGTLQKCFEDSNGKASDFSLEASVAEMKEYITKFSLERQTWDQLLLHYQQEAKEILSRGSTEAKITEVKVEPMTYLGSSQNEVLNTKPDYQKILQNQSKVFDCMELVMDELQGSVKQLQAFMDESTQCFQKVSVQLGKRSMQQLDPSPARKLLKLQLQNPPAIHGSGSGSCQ
Chain of Mis12C^M4 (human), Q9H081 (Q9H081 whole entry, chain 1 of 4): as the sequence (Q9H081 whole entry, chain 1 of 4) above
Chain of Mis12C^M4 (human), Q9H081 (Q6P1K2 whole entry, chain 2 of 4, further chain): as the sequence (Q6P1K2 whole entry, chain 2 of 4, further chain) above
Chain of Mis12C^M4 (human), Q9H081 (Q96IY1 whole entry, chain 3 of 4, further chain): as the sequence (Q96IY1 whole entry, chain 3 of 4, further chain) above
Chain of Mis12C^M4 (human), Q9H081 (Q9H410 whole entry, chain 4 of 4, further chain): as the sequence (Q9H410 whole entry, chain 4 of 4, further chain) above

B1: Ndc80 complex (Ndc80C): NDC80^HEC1, NUF2, SPC24, SPC25, O14777 1-642; Q9BZD4 1-464; Q8NBT2 1-197; Q9HBM1 1-224 (complex)
chain 1: MKRSSVSSGGAGRLSMQELRSQDVNKQGLYTPQTKEKPTFGKLSINKPTSERKVSLFGKRTSGHGSRNSQLGIFSSSEKIKDPRPLNDKAFIQQCIRQLCEFLTENGYAHNVSMKSLQAPSVKDFLKIFTFLYGFLCPSYELPDTKFEEEVPRIFKDLGYPFALSKSSMYTVGAPHTWPHIVAALVWLIDCIKIHTAMKESSPLFDDGQPWGEETEDGIMHNKLFLDYTIKCYESFMSGADSFDEMNAELQSKLKDLFNVDAFKLESLEAKNRALNEQIARLEQEREKEPNRLESLRKLKASLQGDVQKYQAYMSNLESHSAILDQKLNGLNEEIARVELECETIKQENTRLQNIIDNQKYSVADIERINHERNELQQTINKLTKDLEAEQQKLWNEELKYARGKEAIETQLAEYHKLARKLKLIPKGAENSKGYDFEIKFNPEAGANCLVKYRAQVYVPLKELLNETEEEINKALNKKMGLEDTLEQLNAMITESKRSVRTLKEEVQKLDDLYQQKIKEAEEEDEKCASELESLEKHKHLLESTVNQGLSEAMNELDAVQREYQLVVQTTTEERRKVGNNLQRLLEMVATHVGSVEKHLEEQIAKVDREYEECMSEDLSENIKEIRDKYEKKATLIKSSEE
chain 2: METLSFPRYNVAEIVIHIRNKILTGADGKNLTKNDLYPNPKPEVLHMIYMRALQIVYGIRLEHFYMMPVNSEVMYPHLMEGFLPFSNLVTHLDSFLPICRVNDFETADILCPKAKRTSRFLSGIINFIHFREACRETYMEFLWQYKSSADKMQQLNAAHQEALMKLERLDSVPVEEQEEFKQLSDGIQELQQSLNQDFHQKTIVLQEGNSQKKSNISEKTKRLNELKLSVVSLKEIQESLKTKIVDSPEKLKNYKEKMKDTVQKLKNARQEVVEKYEIYGDSVDCLPSCQLEVQLYQKKIQDLSDNREKLASILKESLNLEDQIESDESELKKLKTEENSFKRLMIVKKEKLATAQFKINKKHEDVKQYKRTVIEDCNKVQEKRGAVYERVTTINQEIQKIKLGIQQLKDAAEREKLKSQEIFLNLKTALEKYHDGIEKAAEDSYAKIDEKTAELKRKMFKMST
chain 3: MAAFRDIEEVSQGLLSLLGANRAEAQQRRLLGRHEQVVERLLETQDGAEKQLREILTMEKEVAQSLLNAKEQVHQGGVELQQLEAGLQEAGEEDTRLKASLLQLTRELEELKEIEADLERQEKEVDEDTTVTIPSAVYVAQLYHQVSKIEWDYECEPGMVKGIHHGPSVAQPIHLDSTQLSRKFISDYLWSLVDTEW
chain 4: MVEDELALFDKSINEFWNKFKSTDTSCQMAGLRDTYKDSIKAFAEKLSVKLKEEERMVEMFLEYQNQISRQNKLIQEKKDNLLKLIAEVKGKKQELEVLTANIQDLKEEYSRKKETISTANKANAERLKRLQKSADLYKDRLGLEIRKIYGEKLQFIFTNIDPKNPESPFMFSLHLNEARDYEVSDSAPHLEGLAEFQENVRKTNNFSAFLANVRKAFTATVYN
With B1, the kinetochore levels of endogenous Ndc80C (NDC80^HEC1 immunofluorescence) in HeLa cells depleted of endogenous Mis12C and electroporated with the mutant Mis12C in assay [1] and in assay [2] was 50 % reduction each time.
